B1: anti-IgE antibody 5.948-H100Y (Fab) (Fab, V domains shown)
VH: QVQLVQSGAEVKKPGASVKVSCKASGYTFTSYDINWVRQATGQGLEWMGWMDPNSGNTGYAQKFQGRVTMTRNTSISTAYMELSSLRSEDTAVYYCARGYYDSDGYYSFSGMDVWGQGTTVTVSS
VL: not shown
notes: Injected as purified Fab fragment
B2: H17H25H100Y (Fab) (Fab, V domains shown)
VH: QVQLVQSGAEVKKPGASVKVSCKASGYTFTSHDINWVRQATGQGLEWMGWMDPHSGNTGYAQKFQGRVTMTRNTSISTAYMELSSLRSEDTAVYYCARGYYDSDGYYSFSGMDVWGQGTTVTVSS
VL: not shown
B3: H25H100Y (Fab) (Fab, V domains shown)
VH: QVQLVQSGAEVKKPGASVKVSCKASGYTFTSYDINWVRQATGQGLEWMGWMDPHSGNTGYAQKFQGRVTMTRNTSISTAYMELSSLRSEDTAVYYCARGYYDSDGYYSFSGMDVWGQGTTVTVSS
VL: not shown
B4: L38H312H100Y (Fab) (Fab, V domains shown)
VH: QVQLVQSGAEVKKPGASVKVSCKASGYTFTSYDINWVRQATGQGLEWMGWMDPNSGNTGYAQKFQGRVTMTRNTSISTAYMELSSLRSEDTAVYYCARGYYDSDGYYSFHGMDVWGQGTTVTVSS
VL: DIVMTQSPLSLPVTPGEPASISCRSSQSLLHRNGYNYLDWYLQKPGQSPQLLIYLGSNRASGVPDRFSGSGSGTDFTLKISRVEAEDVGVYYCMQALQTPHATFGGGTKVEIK
B5: h5A10 (antibody, V domains shown)
VH: QVQLVQSGAEVKKPGASVKVSCKASGYTFTSYYMHWVRQAPGQGLEWMGEINPSGGRTNYNEKFKSRVTMTRDTSTSTVYMELSSLRSEDTAVYYCARERPLYAMDYWGQGTTVTVSS
VL: DIQMTQSPSSLSASVGDRVTITCKASQDVSTAVAWYQQKPGKAPKLLIYSASYRYTGVPSRFSGSGSGTDFTFTISSLQPEDIATYYCQQRYSTPRTFGQGTKLEIK
notes: In the histidine scan it was used as a Fab with a histidine tag at the C-terminus of CH1; also called 5A10 hu frame

Columns and labels:
[1] = molecular target: T1, human IgE-Fc (Ch2-Ch3-Ch4), minimally biotinylated (human, UniProt P01854-1 105-428, limits assumed, minimally biotinylated with EZ-Link NHS-LC-LC-biotin (sites not given)); assay: SPR Biacore T200, KD at pH 6.0 over KD at pH 7.4
T1 construct: domain: Ch2-Ch3-Ch4; Captured on NeutrAvidin chip; also called IgE construct; B-IgE
T1 sequence (P01854 other isoform, or with tags, fused parts or gaps limits assumed): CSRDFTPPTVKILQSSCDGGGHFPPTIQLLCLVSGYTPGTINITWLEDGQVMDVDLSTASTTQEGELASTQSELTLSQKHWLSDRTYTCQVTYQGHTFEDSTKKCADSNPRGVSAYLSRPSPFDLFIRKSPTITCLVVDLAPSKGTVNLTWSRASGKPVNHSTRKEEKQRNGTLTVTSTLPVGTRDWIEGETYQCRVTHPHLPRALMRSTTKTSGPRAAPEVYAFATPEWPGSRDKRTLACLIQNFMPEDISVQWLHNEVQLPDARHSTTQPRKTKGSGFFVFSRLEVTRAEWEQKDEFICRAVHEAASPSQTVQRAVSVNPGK
Protocol: (§1) All Biacore experiments were performed using two of the four flow cells (1&2 or 3&4) of the sensor chip in parallel. The downstream flow cell was used as analysis flow cell while the other flow cell was used as a reference surface. Thus, biotinylated IgE (B-IgE) was captured on the analysis flow cell and every purified Fab fragment was injected over both. The sensorgram from the reference flow cell was subtracted from that of the analysis flow cell.
(§2) Following capture of B-IgE, a purified Fab fragment was injected at 30 μL/min on analysis and reference flow cells in a series of injections from low to high concentration. The top concentration of Fab ranged from 30 nM to 200 nM and the dilution factor was 3-fold. Each Fab dilution was injected for 2 minutes, followed by a final dissociation time of 30 minutes after the last injection. A similar set of injections was performed with running buffer in place of Fab for double-referencing purposes (double-referencing as described in Myszka, J Mol Recognit 12: 279-284, 1999). The double-referenced sensorgrams were fit globally to a simple 1:1 Langmuir with mass transport binding model.
(§3) The experiments were performed at pH 6.0 and 7.4 using sample and running buffers of 10 mM Sodium Phosphate, 150 mM Sodium Chloride, 0.05% Tween-20, 1 mg/mL BSA, pH 6 and 10 mM Sodium Phosphate, 150 mM Sodium Chloride, 0.05% Tween-20, 1 mg/mL BSA, pH 7.4, respectively.

[2] = molecular target: T1, human IgE-Fc (Ch2-Ch3-Ch4), minimally …; assay: SPR Biacore T200, kd at pH 6.0 over kd at pH 7.4
Protocol: (§4) A biotin-capture surface was prepared by immobilization of NeutrAvidin: all flow cells of a Biacore CM4 sensor chip were activated with a 1:1 (v/v) mixture of 400 mM EDC and 100 mM NHS for 7 minutes, at a flow rate of 10 μL/min. NeutrAvidin (Pierce, product #: 31000) was diluted to 100 μg/mL in 10 mM Sodium Acetate pH 4.5 and injected on all flow cells for 7 minutes at 20 μL/min. All flow cells were blocked with 100 mM Ethylenediamine in 150 mM Borate buffer pH 8.5 for 7 minutes at 10 μL/min.
as §2, §3

[3] = molecular target: T1, human IgE-Fc (Ch2-Ch3-Ch4), minimally …; assay: SPR Biacore T200, biotin-IgE-Fc captured, Fab injected, 25 C, pH 6.0
Protocol: as §4, §2, §3

[4] = molecular target: T1, human IgE-Fc (Ch2-Ch3-Ch4), minimally …; assay: SPR Biacore T200, biotin-IgE-Fc captured, Fab injected, 25 C, pH 7.4
Protocol: as §1, §2, §3

[5] = molecular target: T2, PCSK9 (species not stated, Table 7 assay) (Pan troglodytes (Chimpanzee); Homo …, UniProt A8T644 31-152; Q8NBP7 153-692); assay: SPR Biacore 2000, IgG on anti-human Fc, PCSK9 injected, pH 6.0
T2 construct: kept apart from m1 and m2
T2 sequence (A8T644 31-152 limits assumed, chain 1 of 2): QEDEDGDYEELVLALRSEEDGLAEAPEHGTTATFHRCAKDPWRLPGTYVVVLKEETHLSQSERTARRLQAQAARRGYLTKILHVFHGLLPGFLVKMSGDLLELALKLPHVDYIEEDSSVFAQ
T2 sequence (A8T644 other isoform, or with tags, fused parts or gaps limits assumed, chain 2 of 2): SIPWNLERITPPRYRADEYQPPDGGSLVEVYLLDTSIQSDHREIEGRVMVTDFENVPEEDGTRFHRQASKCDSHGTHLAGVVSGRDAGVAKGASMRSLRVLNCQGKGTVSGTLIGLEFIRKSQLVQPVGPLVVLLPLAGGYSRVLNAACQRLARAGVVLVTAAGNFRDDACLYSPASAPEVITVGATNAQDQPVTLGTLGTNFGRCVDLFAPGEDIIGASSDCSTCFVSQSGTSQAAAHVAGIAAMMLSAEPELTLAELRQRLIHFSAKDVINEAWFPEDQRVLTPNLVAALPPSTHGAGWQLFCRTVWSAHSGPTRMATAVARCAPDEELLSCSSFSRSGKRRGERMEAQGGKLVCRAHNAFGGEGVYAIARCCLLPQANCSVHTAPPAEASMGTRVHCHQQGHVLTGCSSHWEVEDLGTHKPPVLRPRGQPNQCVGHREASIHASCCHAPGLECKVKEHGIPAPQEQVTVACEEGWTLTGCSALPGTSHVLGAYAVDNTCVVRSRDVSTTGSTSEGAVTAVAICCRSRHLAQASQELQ
Protocol: (§5) Affinity and kinetic parameters for PCSK9 antibodies h5A10 and 5L1721H23_{—}6L3H3 as well as PCSK9 antibody H1M300N (see US2010/0166768, e.g., at Table 7). All experiments were performed on a Biacore 2000 biosensor.
(§6) An anti-human Fc sensor chip was prepared by activating all flow cells of a Biacore CM4 sensor chip with a 1:1 (v/v) mixture of 400 mM EDC and 100 mM NHS for 7 minutes, at a flow rate of 10 μL/min. An anti-human Fc reagent (Goat F(AB′)2 Fragment to Human IgG Fc, Cappel Catalog #: 55053) was diluted to 60 μg/mL in 10 mM Sodium Acetate pH 5.0 and injected on all flow cells for 7 minutes at 20 μL/min. All flow cells were blocked with 100 mM ethylenediamine in 150 mM Borate buffer pH 8.5 for 7 minutes at 10 μL/min.
(§7) The experiments were performed at pH 6.0 and 7.4 using sample and running buffers of 10 mM Sodium Phosphate, 150 mM Sodium Chloride, 0.05% Tween-20, pH 6 and 10 mM Sodium Phosphate, 150 mM Sodium Chloride, 0.05% Tween-20, pH 7.4, respectively.

[6] = molecular target: T2, PCSK9 (species not stated, Table 7 …); assay: SPR Biacore 2000, IgG on anti-human Fc, PCSK9 injected, pH 7.4
Protocol: as §5, §6, §7

Binder | KD ratio pH 6.0/pH 7.4 [1] | kd ratio pH 6/pH 7.4 [2] | Kd [3] | koff [3] | kon [3] | Kd [4] | koff [4] | kon [4] | Kd [5] | koff [5] | kon [5] | t1/2 [5] | Kd [6] | koff [6] | kon [6] | t1/2 [6]
B1 | 3.1 | 3.03 | 0.149 nM | 0.000152 s⁻¹ | 1.02e+06 M⁻¹ s⁻¹ | 0.0487 nM | 5.01e-05 s⁻¹ | 1.03e+06 M⁻¹ s⁻¹ | – | – | – | – | – | – | – | –
B2 | 8.6 | 8.63 | 16.3 nM | 0.00364 s⁻¹ | 223000 M⁻¹ s⁻¹ | 1.9 nM | 0.000422 s⁻¹ | 222000 M⁻¹ s⁻¹ | – | – | – | – | – | – | – | –
B3 | 8 | 7.66 | 5.08 nM | 0.00151 s⁻¹ | 298000 M⁻¹ s⁻¹ | 0.634 nM | 0.000197 s⁻¹ | 311000 M⁻¹ s⁻¹ | – | – | – | – | – | – | – | –
B4 | 7 | 11.3 | 37.1 nM | 0.0122 s⁻¹ | 329000 M⁻¹ s⁻¹ | 5.33 nM | 0.00108 s⁻¹ | 202000 M⁻¹ s⁻¹ | – | – | – | – | – | – | – | –
B5 | – | – | – | – | – | – | – | – | < 0.181 nM | < 6e-05 s⁻¹ | 331000 M⁻¹ s⁻¹ | < 3.22 h | < 0.249 nM | < 6e-05 s⁻¹ | 241000 M⁻¹ s⁻¹ | < 3.22 h

From patent US20150266974A1 (RINAT NEUROSCIENCE, published 2015)
